One molecule from patent US20140113831A1 (published 2014) can be followed below.

The target of the experiment is T1, human PDGFRb (human, UniProt P09619 33-531).
T1 chain: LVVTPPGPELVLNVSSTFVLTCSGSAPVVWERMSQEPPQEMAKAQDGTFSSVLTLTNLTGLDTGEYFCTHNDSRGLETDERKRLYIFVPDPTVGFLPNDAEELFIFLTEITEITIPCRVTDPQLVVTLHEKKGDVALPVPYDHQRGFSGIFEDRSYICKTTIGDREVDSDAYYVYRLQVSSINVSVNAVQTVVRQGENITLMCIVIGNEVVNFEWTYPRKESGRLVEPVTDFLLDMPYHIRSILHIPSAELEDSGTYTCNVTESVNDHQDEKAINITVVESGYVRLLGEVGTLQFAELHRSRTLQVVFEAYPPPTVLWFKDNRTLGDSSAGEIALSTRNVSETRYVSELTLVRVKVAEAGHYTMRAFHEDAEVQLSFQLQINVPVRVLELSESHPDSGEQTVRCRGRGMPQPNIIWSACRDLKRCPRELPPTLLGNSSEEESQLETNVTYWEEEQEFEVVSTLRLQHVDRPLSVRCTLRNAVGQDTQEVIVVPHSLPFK
Nature of the experiment: solution binding affinity (35S Met labeled).

B1: scFv XB2202-A4 (scFv, V domains shown)
VH: QVQLVQSGAEVKKPGSSVRVSCKASGGTFSRHAISWVRQAPGQGLEWIGGILPILKTPNYAQRFQGRVTINADESTSTVYMEMSSLRSEDTAVYYCATHGGDRSYWGQGTLVTVSS
VL: DVVMTQSPSSLSASVGDRVTITCQASQDISNWLNWYQQKPGKAPKLLIYEASNLETGVPSRFSGSGSGTDFTFTISSLQPEDIATYYCQQYNNVLRTFGQGTKVEIK
B1 showed a Kd of 0.03 nM.
